From paper PMC3267021, “The Molecular Basis for the Endocytosis of Small R-SNAREs by the Clathrin Adaptor CALM” (Cell, 2011)
Numbering of substitutions follows the chain as printed. “And” between values parts separate entries of the source, which are not always exact repeats. Equal entries are not always repeated.

T1: His6MycCALM_(ANTH) (CALM ANTH domain, residues 1-289) (rat, UniProt O55012 1-289)
T1 construct: source: E. coli BL21(DE3) pLysS, purified (Ni2+-NTA agarose, S200 gel filtration)
T1 sequence (looked up): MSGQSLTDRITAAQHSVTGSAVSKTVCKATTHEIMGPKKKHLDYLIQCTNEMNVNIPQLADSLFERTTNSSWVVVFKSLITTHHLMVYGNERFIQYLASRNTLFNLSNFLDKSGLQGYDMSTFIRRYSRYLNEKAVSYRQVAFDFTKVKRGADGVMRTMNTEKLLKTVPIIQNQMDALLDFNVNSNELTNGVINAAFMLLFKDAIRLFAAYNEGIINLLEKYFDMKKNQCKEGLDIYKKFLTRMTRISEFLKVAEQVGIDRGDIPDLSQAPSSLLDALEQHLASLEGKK

T2: CALM_(ANTH(1-264)) part of the CALM_(ANTH(1-264)):VAMP8_((11-41)) chimera (rat, UniProt O55012 1-264)
T2 construct: PDB 3ZYM), VAMP8 11-41; also called CALM_(ANTH) in the chimeric complex; source: E. coli BL21(DE3) pLysS, purified (glutathione sepharose, thrombin cleavage of GST, S200 gel filtration); not shown: GST, N-terminal, cleaved
T2 sequence (looked up): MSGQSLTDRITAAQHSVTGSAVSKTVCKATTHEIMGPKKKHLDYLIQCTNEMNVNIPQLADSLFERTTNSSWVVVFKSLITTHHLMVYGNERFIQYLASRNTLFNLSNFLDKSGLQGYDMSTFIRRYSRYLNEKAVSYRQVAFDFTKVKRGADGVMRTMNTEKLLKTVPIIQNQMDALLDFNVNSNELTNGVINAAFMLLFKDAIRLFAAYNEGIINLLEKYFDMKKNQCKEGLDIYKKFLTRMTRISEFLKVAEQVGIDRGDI

T3: SNAP23, GST cleaved (human, UniProt O00161 1-211)
T3 construct: SNAP23, human; Construct pGEX 4T1 SNAP23 (human); source: E. coli BL21(DE3) pLysS, purified (glutathione sepharose, thrombin cleavage of GST); not shown: GST, N-terminal, cleaved
T3 sequence (looked up): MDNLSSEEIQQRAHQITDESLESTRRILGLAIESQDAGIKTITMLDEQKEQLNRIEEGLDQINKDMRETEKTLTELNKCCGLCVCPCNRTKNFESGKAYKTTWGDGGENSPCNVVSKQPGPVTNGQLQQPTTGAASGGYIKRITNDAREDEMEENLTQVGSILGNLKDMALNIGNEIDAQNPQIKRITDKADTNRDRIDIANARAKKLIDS

T4: CALM_(ANTH(1-289)), GST cleaved (rat, UniProt O55012 1-289)
T4 construct: analyte of the liposome-based SPR and crystallised as 3ZYK; also called GST cleaved CALM_(ANTH); source: E. coli BL21(DE3) pLysS, purified (glutathione sepharose, thrombin cleavage of GST, S200 gel filtration); not shown: GST, N-terminal, cleaved
T4 sequence (looked up): T1 sequence (looked up)

B1: His6MycCALM_(ANTH) (CALM ANTH domain, residues 1-289) (domain or fragment)
chain: T1 sequence (looked up)
B2: GST-VAMP3 (VAMP3 residues 1-81) (domain or fragment)
chain: MSTGVPSGSSAATGSNRRLQQTQNQVDEVVDIMRVNVDKVLERDQKLSELDDRADALQAGASQFETSAAKLKRKYWWKNCK
B3: GST-VAMP8_(10-41) (domain or fragment, mouse, UniProt O70404 10-41, looked up)
chain: NDRVRNLQSEVEGVKNIMTQNVERILSRGENL
notes: VAMP8, mouse, residues 10-41 (N-terminal half of the SNARE motif); Construct pGEX 4T2 VAMP8_((10-41)); also called residues 10-41 of VAMP8; source: E. coli BL21(DE3) pLysS, purified (glutathione sepharose, S200 gel filtration)
B4: GSTVAMP8 L44PL51P (domain or fragment, mouse, UniProt O70404 1-76, looked up)
chain: MEEASGSAGNDRVRNLQSEVEGVKNIMTQNVERILSRGENLDHPRNKTEDPEATSEHFKTTSQKVARKFWWKNVKM
notes: VAMP8, mouse, residues 1-76; source: E. coli BL21(DE3) pLysS, purified (glutathione sepharose, S200 gel filtration)
B5: CALM_(ANTH(1-264)), GST cleaved (domain or fragment, rat, UniProt O55012 1-264, looked up)
chain: T2 sequence (looked up)
notes: source: E. coli BL21(DE3) pLysS, purified (glutathione sepharose, thrombin cleavage of GST, S200 gel filtration); not shown: GST, N-terminal, cleaved
B6: VAMP8_((11-41)) part of the CALM_(ANTH(1-264)):VAMP8_((11-41)) chimera (domain or fragment, mouse, UniProt O70404 11-41, looked up)
chain: DRVRNLQSEVEGVKNIMTQNVERILSRGENL
notes: VAMP8, mouse, residues 11-41; also called VAMP8 helix; residues 11-41 of VAMP8; source: E. coli BL21(DE3) pLysS, purified (as part of the chimera)
B7: GST-VAMP8 (VAMP8 residues 1-76, full cytoplasmic portion) (domain or fragment, mouse, UniProt O70404 1-76, looked up)
chain: B4 chain with P44L, P51L
notes: VAMP8, mouse, residues 1-76 (full cytoplasmic portion); Construct pGEX 4T2 VAMP8_(1-76); GST of pGEX vectors is N-terminal (surmise); also called VAMP8_(1-76); wt GSTVAMP8; source: E. coli BL21(DE3) pLysS, purified (glutathione sepharose, S200 gel filtration)
B8: syntaxin3 (residues 195-253), GST cleaved (domain or fragment, human, UniProt Q13277 195-253, looked up)
chain: EGRHKDIVRLESSIKELHDMFMDIAMLVENQGEMLDNIELNVMHTVDHVEKARDETKKA
notes: syntaxin3, human, residues 195-253; Construct pGEX 4T1syntaxin3_((195-253)) (human); also called syntaxin3_((195-253)); Synatxin3(195–253); source: E. coli BL21(DE3) pLysS, purified (glutathione sepharose, thrombin cleavage of GST); not shown: GST, N-terminal, cleaved
B9: GSTVAMP8 K24AM27A (domain or fragment, mouse, UniProt O70404 1-76, looked up)
chain: B4 chain with K24A, M27A, P44L, P51L
notes: VAMP8, mouse, residues 1-76; pGEX 4T2 VAMP8_(1-76) (mouse) 'and mutants thereof'; also called K24AM27A VAMP8; Lys24AlaMet27Ala mutant of VAMP8; source: E. coli BL21(DE3) pLysS, purified (glutathione sepharose, S200 gel filtration)
B10: VAMP8_(1-76)His12, GST cleaved (domain or fragment, mouse, UniProt O70404 1-76, looked up)
chain: B4 chain with P44L, P51L
notes: VAMP8, mouse, residues 1-76; Construct pGEX 4T2 VAMP8_((1-76))His12; also called His12-tagged VAMP8; His-tagged VAMP8; source: E. coli BL21(DE3) pLysS, purified (glutathione sepharose, thrombin cleavage of GST, Ni2+-NTA agarose, dialysis); not shown: GST, N-terminal, cleaved

Tests used:
[1] = target: GST-SNARE (WT or mutant); experiment: ITC; VPiTC; 2 mM His6MycCALM_(ANTH) (WT or mutant) or GST cleaved Epsin_(ENTH) titrated in 37 injections of 4-8 μL into 0.15 mM GST-SNARE in the cell; 100 mM HEPES pH 7.4, 150 mM NaCl, 4 mM DTT; legends give a representative run with SEM of the fit, the text the average of all runs
[2] = target: T1, His6MycCALM_(ANTH) (CALM ANTH domain, …); experiment: as above; details: both partners purified
[3] = target: the molecule itself; experiment: SEC-MALS; analytical S200 10/300 column, 20 mM HEPES pH 7.4, 120 mM NaCl, 4 mM DTT, 0.5 mL/min, inline MALS
[4] = target: T2, CALM_(ANTH(1-264)) part of the …; experiment: crystal structure; CALM_(ANTH(1-264)):VAMP8_((11-41)) chimera on one chain, GST cleaved; sitting drops at 16°C, 100 mM phosphate-citrate pH 4.2, 200 mM NaCl, 50% (v/v) PEG-200; 2.0 Å; PDB 3ZYM; details: both partners purified
[5] = target: T3, SNAP23, GST cleaved; experiment: pull-down; SNARE complex formation: GST-VAMP8 incubated with a three fold molar excess of SNAP23 and syntaxin3 at 4°C for 48 hr in 20 mM HEPES pH 7.4, 500 mM NaCl, 4 mM DTT, 0.5% NP-40; purified on glutathione-sepharose, then S200 gel filtration; details: both partners purified
[6] = target: B9; experiment: as above; details: both partners purified
[7] = target: B7; experiment: as above; details: both partners purified
[8] = target: T4, CALM_(ANTH(1-289)), GST cleaved; experiment: SPR; liposome-based SPR, Biacore 3000, L1 chip; PC/PE + 5% DGS-NTA(Ni) liposomes with captured His12-tagged VAMP8 (600RU); GST cleaved CALM_(ANTH) as analyte, 10 nM to 50 μM, one minute injections at 50 μl/min; PC/PE binding subtracted; details: both partners purified

Binder B1 has a stoichiometry N [1] of 0.9 to 1.1.

For B2, the Kd [2] was 46 µM.

With B3 the Kd [2] was 20 µM.

With B4 the Kd [2] was 23 µM.

B5 was tested, and the “stoichiometry N” value [3] was 2.

B6: binds [4].

With B7 the binding result [5] was “binds” and the Kd [2] was ~18 µM and 17 µM and 20 µM.

B8: binds [6]; binds [7].

B9: binds [5].

B10 gave a Kd [8] of 0.9 µM.
